Measured values as given in US20240168030A1, “DIRECT FLUORESCENT GLYCAN LABELING” (BIO-TECHNE CORPORATION, priority 2019, published 2024).

How the values were obtained:
Assay type in all cases: biochemical
ST3Gal1 = target: T1, ST3Gal1 (Homo sapiens, UniProt Q11201); assay: Direct fluorescent glycan labeling (DFGL) with fluorophore-conjugated sialic acid by ST3Gal1; conditions: for Lower limit of detection of acceptor protein labeled by ST3Gal1: 0.2 nmol CMP-Cy5-SA, fluorescent imaging of SDS-PAGE
T1 construct: purchased R&D Systems (Bio-Techne, Minneapolis, MN)
T1 sequence (Q11201 1-340): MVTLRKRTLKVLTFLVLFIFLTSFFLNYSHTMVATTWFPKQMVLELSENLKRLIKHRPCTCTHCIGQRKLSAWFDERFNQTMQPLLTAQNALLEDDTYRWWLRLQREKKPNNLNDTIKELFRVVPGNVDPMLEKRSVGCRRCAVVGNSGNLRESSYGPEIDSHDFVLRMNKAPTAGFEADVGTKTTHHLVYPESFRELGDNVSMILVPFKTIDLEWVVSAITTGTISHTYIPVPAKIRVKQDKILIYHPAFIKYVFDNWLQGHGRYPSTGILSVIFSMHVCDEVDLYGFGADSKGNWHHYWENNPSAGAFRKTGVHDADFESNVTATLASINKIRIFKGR

ST6Gal1 = target: T2, ST6Gal1 (Homo sapiens, UniProt P15907); assay: DFGL with fluorophore-conjugated sialic acid by ST6Gal1; conditions: for Lower limit of detection of acceptor protein labeled by ST6Gal1: 0.2 nmol CMP-Cy5-SA, fluorescent imaging of SDS-PAGE
T2 construct: purchased R&D Systems (Bio-Techne, Minneapolis, MN)
T2 sequence (P15907 1-406): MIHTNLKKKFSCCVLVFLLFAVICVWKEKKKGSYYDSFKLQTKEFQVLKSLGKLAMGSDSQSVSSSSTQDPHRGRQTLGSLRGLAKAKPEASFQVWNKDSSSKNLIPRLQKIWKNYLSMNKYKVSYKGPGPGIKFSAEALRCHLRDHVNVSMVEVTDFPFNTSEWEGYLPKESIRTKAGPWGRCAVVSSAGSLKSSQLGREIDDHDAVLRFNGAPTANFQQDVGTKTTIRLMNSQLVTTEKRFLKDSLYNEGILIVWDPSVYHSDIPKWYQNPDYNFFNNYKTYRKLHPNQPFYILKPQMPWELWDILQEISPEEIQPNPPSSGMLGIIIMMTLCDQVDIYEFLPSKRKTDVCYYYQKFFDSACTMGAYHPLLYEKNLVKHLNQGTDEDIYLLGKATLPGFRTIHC

[1] = test system: fetal bovine fetuin and asialofetuin; assay: Labeling of fetuin and asialofetuin by sialyltransferases with CMP-f-SA; conditions: CMP-f-SA donors, FIG. 2
[2] = Enzymatic synthesis of Le^x and sLe^x by glycan gel electrophoresis, substrate G2
Protocol: FIG. 21A. Schematic view of the enzymatic steps for Le^X and sLe^X synthesis on the antibody glycan G0. The glycan short names follow that of FIG. 10. FIG. 21B Kinetic comparison of galactosylation on G0 by B4GalT1, sialyation on G2 by ST3Gal4 and ST6Gal1, and fucosylation on A2[3] by FUT7. The reaction time for B4GalT1 was 10 minutes. The reaction time for ST3Gal4, FUT7 and ST6Gal1 was 5 hours. In each case, the labeling enzyme was subject to a 3-fold serial dilution starting from 1 μg each of B4GalT1, FUT7 and ST6Gal1, and 3 μg ST3Gal4. FIG. 21C. […] Reaction time for both cases was 20 minutes. […] FIG. 21D. […] Reaction time for both cases was 20 minutes.
For a typical labeling reaction, 1 μg to 5 μg target protein was mixed with 0.2 nmol fluorophore-conjugated GDP-fucose and 0.2 μg of a fucosyltransferase in 30μL 25 mM Tris pH 7.5, 10 mM MnCl2. The mixture was incubated at 37° C. for 30 minutes. […] To release labeled glycans from a glycoprotein, the sample was first denatured by heating at 95° C. for two minutes in the presence of 0.5% SDS and 80 mM β-mercaptoethanol and then renatured with 1% Triton X-100, and finally treated with PNGase F at 10:1 mass ratio at 37° C. for 20 minutes. To release glycans from antibody, a sample was directly treated with Endo S at 10:1 mass ratio at 37° C. for 20 minutes. All samples were separated by sodium dodecyl sulfate—polyacrylamide gel electrophoresis (SDS-PAGE) at […]. For separating labeled glycoproteins and antibodies, 4-20% gradient SDS gel was used. For separating labeled free glycans, 15% or 17% gel was used. After separation, all gels were imaged using a FluorChem M imager (ProteinSimple, Bio-Techne, Minneapolis, MN). For glycoproteins samples, the gel was also imaged with traditional methods such as silver staining or trichloroethanol (TCE) staining.
For sLe^x synthesis, G0 was first converted to G2 by B4GalT1, then converted to A2[3] by ST3Gal4, and finally converted to A2[3]F2 (carrier of sLe^x) by FUT7 (FIG. 21A). During these steps, different amounts of enzymes, and multiple reaction times were applied to reveal the intermediate products.
Intermediate products are signs for the progress of each enzymatic step.

[3] = 0.2 μg enzyme, 30 μL, 37° C., 30 minutes
[4] = 0.2 μg enzyme, 30 μL, 37° C., 30 minutes, listed as AF
[5] = 5 μg asialofetuin, 0.2 μg enzyme, 30 μL, 37° C., 30 minutes
[6] = 5 μg asialofetuin, 0.2 μg enzyme, 30 μL, FIG. 4

MUC1: recombinant mucin from R&D Systems, contains O-glycans [reference compound]
Lower limit of detection of acceptor protein labeled by ST3Gal1 (ST3Gal1; [3]): around 0.012 μg

asialofetuin: desialylated fetal bovine fetuin, model glycoprotein from Sigma-Aldrich [reference compound]
Lower limit of detection of acceptor protein labeled by ST3Gal1 (ST3Gal1; [3]): 0.37 µg | Lower limit of detection of acceptor protein labeled by ST3Gal1 (ST3Gal1; [4]): lower than 0.37 μg | Lower limit of detection of acceptor protein labeled by ST6Gal1 (ST6Gal1; [3]): 0.37 µg | Lower limit of detection of acceptor protein labeled by ST6Gal1 (ST6Gal1; [4]): lower than 0.37 μg

cytidine monophosphate activated Cy5-conjugated sialic acid [CMP-Cy5-SA]
Donor amount at which maximal labeling by ST3Gal1 was achieved (ST3Gal1; [5]): 37.0 pmol | Donor amount at which visible labeling on asialofetuin by ST3Gal1 was observed (ST3Gal1; [5]): 4.11 pmol | Donor concentration for maximal labeling of asialofetuin by ST3Gal1 (ST3Gal1; [6]): 1.2 µM | Donor concentration needed for maximal labeling of asialofetuin by ST3Gal1 (ST3Gal1; FIG. 4): 1.21 µM | Donor amount at which maximal labeling by ST6Gal1 was achieved (ST6Gal1; [5]): 37.0 pmol | Donor amount at which visible labeling on asialofetuin by ST6Gal1 was observed (ST6Gal1; [5]): 1.37 pmol | Donor concentration for maximal labeling of asialofetuin by ST6Gal1 (ST6Gal1; [6]): 1.2 µM | Donor concentration needed for maximal labeling of asialofetuin by ST6Gal1 (ST6Gal1; FIG. 4): 1.21 µM

B1: α-N-acetylgalactosaminide α-2,6-sialyltransferase 4 (protein, UniProt Q9H4F1 1-302, looked up)
Alpha-N-acetyl-neuraminyl-2,3- …: MKAPGRLVLIILCSVVFSAVYILLCCWAGLPLCLATCLDHHFPTGSRPTVPGPLHFSGYSSVPDGKPLVREPCRSCAVVSSSGQMLGSGLGAEIDSAECVFRMNQAPTVGFEADVGQRSTLRVVSHTSVPLLLRNYSHYFQKARDTLYMVWGQGRHMDRVLGGRTYRTLLQLTRMYPGLQVYTFTERMMAYCDQIFQDETGKNRRQSGSFLSTGWFTMILALELCEEIVVYGMVSDSYCREKSHPSVPYHYFEKGRLDECQMYLAHEQAPRSAHRFITEKAVFSRWAKKRPIVFAHPSWRTE
notes: recombinant human sialyltransferase, O-GalNAc specific
Which of fetuin and asialofetuin the sialyltransferase labeled [1]: only labeled fetuin

B2: α-2,3-sialyltransferase 2 (protein, UniProt Q16842 1-350, looked up)
CMP-N-acetylneuraminate-beta-g …: MKCSLRVWFLSVAFLLVFIMSLLFTYSHHSMATLPYLDSGALDGTHRVKLVPGYAGLQRLSKERLSGKSCACRRCMGDAGASDWFDSHFDGNISPVWTRENMDLPPDVQRWWMMLQPQFKSHNTNEVLEKLFQIVPGENPYRFRDPHQCRRCAVVGNSGNLRGSGYGQDVDGHNFIMRMNQAPTVGFEQDVGSRTTHHFMYPESAKNLPANVSFVLVPFKVLDLLWIASALSTGQIRFTYAPVKSFLRVDKEKVQIYNPAFFKYIHDRWTEHHGRYPSTGMLVLFFALHVCDEVNVYGFGADSRGNWHHYWENNRYAGEFRKTGVHDADFEAHIIDMLAKASKIEVYRGN
notes: recombinant human sialyltransferase, Core-1 O-glycan specific
Which of fetuin and asialofetuin the sialyltransferase labeled [1]: primarily labeled asialofetuin, but also weakly labeled fetuin

B3: α-2,3-sialyltransferase 4 (protein, UniProt Q11206 1-333, looked up)
CMP-N-acetylneuraminate-beta-g …: MVSKSRWKLLAMLALVLVVMVWYSISREDRYIELFYFPIPEKKEPCLQGEAESKASKLFGNYSRDQPIFLRLEDYFWVKTPSAYELPYGTKGSEDLLLRVLAITSSSIPKNIQSLRCRRCVVVGNGHRLRNSSLGDAINKYDVVIRLNNAPVAGYEGDVGSKTTMRLFYPESAHFDPKVENNPDTLLVLVAFKAMDFHWIETILSDKKRVRKGFWKQPPLIWDVNPKQIRILNPFFMEIAADKLLSLPMQQPRKIKQKPTTGLLAITLALHLCDLVHIAGFGYPDAYNKKQTIHYYEQITLKSMAGSGHNVSQEALAIKRMLEMGAIKNLTSF
notes: recombinant human sialyltransferase, N-glycan specific
Which of fetuin and asialofetuin the sialyltransferase labeled [1]: only labeled asialofetuin | Time for the complete conversion of G2 to A2[3] ([2]; FIG. 21B): 5 h | Activity based on reaction completion ([2]; substrate G2, completed product A2[3]): 0.0084 pmol/min/µg | Relative activity ([2]; substrate G2, product A2[3], normalized to FUT6 on sLe^x synthesis): 0.06

B4: α-N-acetylgalactosaminide α-2,6-sialyltransferase 2 (protein, UniProt Q9UJ37 1-374, looked up)
Alpha-N-acetylgalactosaminide …: MGLPRGSFFWLLLLLTAACSGLLFALYFSAVQRYPGPAAGARDTTSFEAFFQSKASNSWTGKGQACRHLLHLAIQRHPHFRGLFNLSIPVLLWGDLFTPALWDRLSQHKAPYGWRGLSHQVIASTLSLLNGSESAKLFAPPRDTPPKCIRCAVVGNGGILNGSRQGPNIDAHDYVFRLNGAVIKGFERDVGTKTSFYGFTVNTMKNSLVSYWNLGFTSVPQGQDLQYIFIPSDIRDYVMLRSAILGVPVPEGLDKGDRPHAYFGPEASASKFKLLHPDFISYLTERFLKSKLINTHFGDLYMPSTGALMLLTALHTCDQVSAYGFITSNYWKFSDHYFERKMKPLIFYANHDLSLEAALWRDLHKAGILQLYQR
notes: sialyltransferase, O-GalNAc specific
Which of fetuin and asialofetuin the sialyltransferase labeled [1]: labeled both fetuin and asialofetuin

B5: α-N-acetylgalactosaminide α-2,6-sialyltransferase 1 (protein, UniProt Q9NSC7 1-600, looked up)
Alpha-N-acetylgalactosaminide …: MRSCLWRCRHLSQGVQWSLLLAVLVFFLFALPSFIKEPQTKPSRHQRTENIKERSLQSLAKPKSQAPTRARRTTIYAEPVPENNALNTQTQPKAHTTGDRGKEANQAPPEEQDKVPHTAQRAAWKSPEKEKTMVNTLSPRGQDAGMASGRTEAQSWKSQDTKTTQGNGGQTRKLTASRTVSEKHQGKAATTAKTLIPKSQHRMLAPTGAVSTRTRQKGVTTAVIPPKEKKPQATPPPAPFQSPTTQRNQRLKAANFKSEPRWDFEEKYSFEIGGLQTTCPDSVKIKASKSLWLQKLFLPNLTLFLDSRHFNQSEWDRLEHFAPPFGFMELNYSLVQKVVTRFPPVPQQQLLLASLPAGSLRCITCAVVGNGGILNNSHMGQEIDSHDYVFRLSGALIKGYEQDVGTRTSFYGFTAFSLTQSLLILGNRGFKNVPLGKDVRYLHFLEGTRDYEWLEALLMNQTVMSKNLFWFRHRPQEAFREALHMDRYLLLHPDFLRYMKNRFLRSKTLDGAHWRIYRPTTGALLLLTALQLCDQVSAYGFITEGHERFSDHYYDTSWKRLIFYINHDFKLEREVWKRLHDEGIIRLYQRPGPGTAKAKN
notes: as for B1
Which of fetuin and asialofetuin the sialyltransferase labeled [1]: labeled both fetuin and asialofetuin
